# Laboratory results taken from patent US20160145343A1 (UNIVERSITY OF PITTSBURGH OF THE COMMONWEALTH SYSTEM OF …, published 2016).
# Residue numbers refer to the chain shown, from its start. Where no end group is shown, it is not given here. The star is where a group is joined. αGalNAc = CC(=O)N[C@@H]1[C@@H](O)[C@@H](O)[C@@H](CO)O[C@@H]1*; Galβ1‑3GalNAc = TF-antigen
# T1: Synthetic peptide HGVTSAPDTRPAPGSTAPP
# T1 construct: Unglycosylated; also called 346; MUC1 repeat
# T1 peptide: HGVTSAPDTRPAPGSTAPP
# T2: Synthetic peptide (GVTSAPDTRPAPGSTAPPAH)2
# T2 peptide: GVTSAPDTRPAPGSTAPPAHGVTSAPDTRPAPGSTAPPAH
# T3: SEQ ID NO: 346 glycopeptide with TF-antigen at Thr9
# T3 construct: also called T9^TF
# T3 peptide: HGVTSAPDT(Galβ1‑3GalNAc)RPAPGSTAPP
# T4: SEQ ID NO: 346 glycopeptide with TF-antigen at Thr4
# T4 construct: also called T4^TF
# T4 peptide: HGVT(Galβ1‑3GalNAc)SAPDTRPAPGSTAPP
# T5: SEQ ID NO: 346 glycopeptide with TF-antigen at Ser5 (not fully specified (residue 5))
# T5 construct: also called S5^TF
# T5 peptide: HGVTSAPDTRPAPGSTAPP
# T6: SEQ ID NO: 346 glycopeptide with TF-antigen at Thr4 and Thr9
# T6 construct: also called T4^TF/T9^TF
# T6 peptide: HGVT(Galβ1‑3GalNAc)SAPDT(Galβ1‑3GalNAc)RPAPGSTAPP
# T7: SEQ ID NO: 346 glycopeptide with Tn-antigen at Thr4, Thr9 and Thr16
# T7 construct: also called T4^Tn/T9^Tn/T16^Tn
# T7 peptide: HGVT(αGalNAc)SAPDT(αGalNAc)RPAPGST(αGalNAc)APP
# T8: SEQ ID NO: 346 glycopeptide with TF-antigen at Thr16
# T8 construct: also called T16^TF
# T8 peptide: HGVTSAPDTRPAPGST(Galβ1‑3GalNAc)APP
# B1: M1 (antibody, human IgG1, kappa, V domains shown)
# VH: QLQLQESGPGLVKPSETLSLTCTVSGGSISSSRYYWGWIRQPPGKGLEWIGSIYYSGSTYYNPSLKSRVTISVDTSNNQFSLKLTSVTAADTAVYYCARLPESGGYSGWFDPWGQGTLVTVSS
# VL: not shown
# notes: Human IgG
# B2: M2 (antibody, human IgG1, kappa, V domains shown)
# VH: B1 VH
# VL: not shown
# notes: Human IgG
# B3: M6 (antibody, human IgG1, kappa, V domains shown)
# VH: EVQLVESGGGLVQPGGSLRLSCAASGFTVSSNYMSWVRQAPGKGLEWVSVIYSGGSTYYADSVKGRFTISRDNSKNTLYLQMNSLRAEDTAVYYCARGSTNTYYYDSSGHPWGQGTMVTVSS
# VL: not shown
# notes: Human IgG
# B4: M5 (antibody, human IgG1, kappa, V domains shown)
# VH: B3 VH
# VL: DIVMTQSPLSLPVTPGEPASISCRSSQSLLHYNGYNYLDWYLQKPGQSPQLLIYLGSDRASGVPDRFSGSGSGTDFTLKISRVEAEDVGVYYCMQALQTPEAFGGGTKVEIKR
# notes: Human IgG
# B5: M16 (antibody, human IgG1, kappa, V domains shown)
# VH: QVQLVESGGGLVKPGGSLRLSCAASGFTFSDYYMSWIRQAPGKGLEWVSYISSSGTTKYYADSVKGRFTISRDNAKNSLYLQMNSLRAEDTAVYYCVRENLGYCSGGSCFYYYYMDVWGKGTTVTVSS
# VL: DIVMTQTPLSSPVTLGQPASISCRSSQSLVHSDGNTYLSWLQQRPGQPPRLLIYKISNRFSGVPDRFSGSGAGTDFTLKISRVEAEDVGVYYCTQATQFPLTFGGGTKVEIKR
# notes: Human IgG
# B6: M14 (antibody, human IgG1, kappa, V domains shown)
# VH: B5 VH
# VL: not shown
# B7: M9 (antibody, human IgG1, kappa, V domains shown)
# VH: B5 VH with F110Y
# VL: not shown
# notes: Human IgG
# B8: M10 (antibody, human IgG1, kappa, V domains shown)
# VH: B5 VH with F110Y
# VL: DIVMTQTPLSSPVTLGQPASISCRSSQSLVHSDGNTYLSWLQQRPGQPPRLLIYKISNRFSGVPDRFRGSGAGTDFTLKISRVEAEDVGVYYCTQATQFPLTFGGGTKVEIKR
# notes: Human IgG
# B9: M23 (antibody, human IgG1, kappa, V domains shown)
# VH: B5 VH with L101I, S105T, S108N
# VL: not shown
# B10: M12 (antibody, human IgG1, kappa, V domains shown)
# VH: B5 VH with L101I, S105T, S108N
# VL: not shown
# notes: Human IgG
# B11: M18 (antibody, human IgG1, kappa, V domains shown)
# VH: B5 VH with T28I, N100D, L101I
# VL: not shown
# notes: Human IgG
# B12: M15 (antibody, human IgG1, kappa, V domains shown)
# VH: B5 VH
# VL: not shown
# notes: Human IgG
# B13: M19 (antibody, human IgG1, kappa, V domains shown)
# VH: B5 VH with T28I, N100D, L101I
# VL: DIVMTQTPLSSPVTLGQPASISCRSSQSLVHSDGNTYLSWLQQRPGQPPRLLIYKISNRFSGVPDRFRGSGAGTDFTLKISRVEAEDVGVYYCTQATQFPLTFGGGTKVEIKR
# notes: Human IgG
# B14: M13 (antibody, human IgG1, kappa, V domains shown)
# VH: B5 VH with L101I, S105T, S108N
# VL: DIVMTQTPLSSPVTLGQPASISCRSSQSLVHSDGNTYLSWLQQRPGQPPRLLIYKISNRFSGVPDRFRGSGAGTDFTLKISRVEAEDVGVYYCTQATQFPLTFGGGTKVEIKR
# notes: Human IgG
# B15: M11 (antibody, human IgG1, kappa, V domains shown)
# VH: B5 VH with S105T, S108N
# VL: not shown
# B16: M8 (antibody, human IgG1, kappa, V domains shown)
# VH: B5 VH with T56S, K58I, V97A, N100R, L101I, F110Y
# VL: not shown
# B17: M17 (antibody, human IgG1, kappa, V domains shown)
# VH: B5 VH with T28I, N100D, L101I
# VL: not shown
# B18: M3 (antibody, human IgG1, lambda, V domains shown)
# VH: QLQLQESGPGLVKPSETLSLTCTVSGGSISSSSYYWGWIRQPPGKGLEWIGSIYYSGSTHYNPSLKSRVTISVDTSKNQFSLKLRSVTAADTAVYYCARGVVEVRGNHYYYYYMDVWGKGTTVTVSS
# VL: QSVLTQPPSVSGAPGQRVTISCTGSSSNIGAGYDVHWYQQLPGTAPKLLIYGNSYRPSGVPDRFSGSKSGTSASLAITGLQAEDEADYYCQSYDSSLSGSGVFGGGTKLTVLG
# notes: Human IgG
# B19: M4 (antibody, human IgG1, lambda, V domains shown)
# VH: B18 VH with S67R, V73E, R85S, Y113H, V116A
# VL: B18 VL with R17G, T44S, L48F, L49F, N53S, S54N, Y55N
# notes: Human IgG
# B20: M20 (antibody, human IgG1, kappa, V domains shown)
# VH: EVQLVESGGGLVQPGGSLRLSCAASGFTFSSYWMHWVRQAPGKGLVWVSHINSDGSSTSYADSVKGRFTISRDNAKNTLYLQMNSLRAEDTAVYYCARELADWGQGTLVTVSS
# VL: DVVMTQSPLSLPVTLGQPASISCRSSQSLVYSDGNTYLNWFQQRPGQSPRRLIYQVSNRDSGVPDRFSGSGSGTDFTLKIGRVEAEDVGVYFCMQGTHWPWTFGQGTKVEIKR
# notes: Human IgG
# B21: M22 (antibody, human IgG1, kappa, V domains shown)
# VH: EVQLVESGGGLVQPGGSLRLSCAASGFTVSSNYMSWVRQAPGKGLEWVSVIYSGGTTYYADSVKGRFTISRHNSKNTLYLQMNSLRAEDTAVYYCARDHDPDYGGYYMDVWGKGTTVTVSS
# VL: B20 VL
# notes: Human IgG
# B22: M21 (antibody, human IgG1, kappa, V domains shown)
# VH: EVQLVESGGGLVQPGGSLRLSCAASGFTVSSNYMSWVRQAPGKGLEWVSVIYSGGSTYYADSVKGRFTISRDNSKNTLYLQMNSLRAEDTAVYYCARDQEHYFDGSGYYVDYWGQGTLVTVSS
# VL: B20 VL
# notes: Human IgG
# Key:
# [1] = target: T1, Synthetic peptide HGVTSAPDTRPAPGSTAPP; assay: ELISA on coated peptide, antibody 0.01 mg/ml, mean of 3
# From the text: (§1) Selected antibodies from Table 1 were further characterized for binding to synthetic MUC1 glycopeptides that were synthesized with the GalNac or GaNac-Gal carbohydrates on various serines and threonines along the MUC1 tandem repeat. If placed within the specific epitope recognized by an antibody, the antibody would not bind that particular glycopeptide.
# [2] = target: T2, Synthetic peptide …; assay: as above
# From the text: as §1
# [3] = target: T9, 100 aa-long synthetic MUC1 peptide (…)5; assay: ELISA titration on coated 100-mer peptide, EC50 approximated
# T9 construct: also called 100-mer; vaccine 100-mer peptide
# From the text: (§2) Heavy and light chains of antibodies reactive against MUC1 were generated from plasma of individuals vaccinated with a 100 aa-long synthetic MUC1 peptide (100-mer) representing the unglycosylated tumor associated MUC1 antigen (Kimura et al., 2013, Cancer Prev. Res. (Phila.), 6:18-26). Binding of monoclonal antibodies produced by combinatorial pairing of chains was characterized by ELISA using the vaccine 100-mer peptide consisting of the following sequence ([…])₅ (SEQ ID NO: 2). Briefly, 96-well high-binding ELISA plates were coated with 50 μl of the peptide diluted in carbonate buffer at 2 μg/ml. The wells were washed then blocked with 5% fat-free milk in phosphate-buffered saline (PBS). Antibodies were diluted in 5% milk in PBS with 0.1% TWEEN 20 (PBS-T) and then added to the peptide-coated, blocked wells and incubated at 37° C. for 2 hours, after which the wells were washed. Binding of antibody was probed with an anti-human IgG goat antibody conjugated to horseradish peroxidase (HRP), and signal was detected with 3,3′,5,5′-tetramethylbenzidine (TMB) substrate, which was neutralized with an acid, then the 450 nm absorbance was read. […] Additionally, the EC₅₀ of each antibody was approximated by ELISA titration (Table 1).
# [4] = target: T3, SEQ ID NO: 346 glycopeptide with …; assay: ELISA on coated glycopeptide, antibody 0.01 mg/ml, mean of 3
# From the text: as §1
# [5] = target: T4, SEQ ID NO: 346 glycopeptide with …; assay: as above
# From the text: as §1
# [6] = target: T5, SEQ ID NO: 346 glycopeptide with …; assay: as above
# From the text: as §1
# [7] = target: T6, SEQ ID NO: 346 glycopeptide with …; assay: as above
# From the text: as §1
# [8] = target: T7, SEQ ID NO: 346 glycopeptide with …; assay: as above
# From the text: as §1
# [9] = target: T8, SEQ ID NO: 346 glycopeptide with …; assay: as above
# From the text: as §1
# [10] = target: T9, 100 aa-long synthetic MUC1 peptide (…)5; assay: ELISA on coated 100-mer peptide
# From the text: as §2
Binder,ELISA absorbance at 450 nm [1] [absorbance],ELISA absorbance at 450 nm [2] [absorbance],EC50 [3] [ng/mL],ELISA absorbance at 450 nm [4] [absorbance],ELISA absorbance at 450 nm [5] [absorbance],ELISA absorbance at 450 nm [6] [absorbance],ELISA absorbance at 450 nm [7] [absorbance],ELISA absorbance at 450 nm [8] [absorbance],ELISA absorbance at 450 nm [9] [absorbance],binding result [10]
B1,0.1,3.2,11,0.1,0.1,0.1,0.1,0.1,0.1,
B2,0.1,3.4,7,0.1,0.1,0.1,0.1,0.1,0.1,
B3,,,12,,,,,,,
B4,,,100,,,,,,,
B5,2.2,3.3,11,,,1.3,,,2.2,
B6,2.1,2.9,2,,1.6,2.1,,,2.4,
B7,,,4,,,,,,,
B8,,,4,,,,,,,
B9,2,2.9,,,1.7,2.4,,,2.5,binds
B10,,,2,,,,,,,
B11,2.4,3.3,,,1.5,2.7,,,2.5,binds
B12,,,5,,,,,,,
B13,,,,,,,,,,binds
B14,,,2,,,,,,,
B15,,,10,,,,,,,
B16,2.1,3,4,,1.6,2.1,,,2.5,
B17,,,,,,,,,,binds
B18,0.1,3.1,11,0.1,0.1,0.1,0.1,0.1,0.1,
B19,,,4,,,,,,,
B20,1.9,2.8,4,1.9,2,2.1,1.9,,,
B21,2.1,3.1,7,2.3,2.2,2.2,2.3,,,
B22,2.1,3,11,2.1,2.1,2.1,2.2,,,
